Laboratory results reported in patent publication US20250320281A1.

B1: PGT-126 (antibody, V domains shown)
VH: QPQLQESGPGLVEASETLSLTCTVSGDSTAACDYFWGWVRQPPGKGLEWIGGLSHCAGYYNTGWTYHNPSLKSRLTISLDTPKNQVFLKLNSVTAADTAIYYCARFDGEVLVYHDWPKPAWVDLWGRGTLVTVSS
VL: QSALTQPPSASGSPGQSISISCTGTSNRFVSWYQQHPGKAPKLVIYGVNKRPSGVPDRFSGSKSGNTASLTVSGLQTDDEAVYYCSSLVGNWDVIFGGGTKLTVL
B2: PGT-130 (antibody, V domains shown)
VH: QVQLQESGPGLVKPAETLSLTCSVSGESINTGHYYWGWVRQVPGKGLEWIGHIHYTTAVLHNPSLKSRLTIKIYTLRNQITLRLSNVTAADTAVYHCVRSGGDILYYYEWQKPHWFSPWGPGIHVTVSS
VL: QSALTQPPSASGSLGQSVTISCNGTSSDIGGWNFVSWYQQFPGRAPRLIIFEVNKRPSGVPGRFSGSKSGNSASLTVSGLQSDDEGQYFCSSLFGRWDVVFGGGTKLTVL

Tests used:
[1] = target: HIV-1 JR-CSF Env E466A (HIV-1 isolate JR-CSF) (UniProt P20871); assay: cell-based or functional assay
[2] = target: HIV-1 JR-CSF Env F468A (HIV-1 isolate JR-CSF) (UniProt P20871); assay: cell-based or functional assay

Binder	Fold IC50 increase relative to wild-type [1]	Fold IC50 increase relative to wild-type [2]
B1	1.4 fold	
B2		0.4 fold
